Laboratory results as given in paper PMC9072662.

Molecular target: Tetrameric photosystem I from Chroococcidiopsis sp. TS-821 isolated with DDM (Chroococcidiopsis sp. TS-821 (endogenous in TS-821 thylakoids))

- stoichiometry N: 4
Substance: Tetrameric photosystem I from Chroococcidiopsis sp. TS-821 isolated with DDM (complex)
